Results on one protein are retold here after US20180172692.

For one series, the target named is T1, β10*.
T1 chain: VSGWRLFKKIS

Another series deals with T2, β9.
T2 chain: GSMLFRVTINS

B1: Δ11S (protein)
chain: MVFTLEDFVGDWEQTAAYNLDQVLEQGGVSSLLQNLAVSVTPIQRIVRSGENALKIDIHVIIPYEGLSADQMAQIEEVFKVVYPVDDHHFKVILPYGTLVIDGVTPNMLNYFGRPYEGIAVFDGKKITVTGTLWNGNKIIDERLITPD
For the protein B1, the “luminescence (furimazine substrate), fragments each at 1 µM” value with β10* and with β9 was “the mixture of all three components is the only combination that produced significant luminescence” each time.
